Experimental data as given in the DeepSol protein solubility set.

Assay: soluble on expression in E. coli; label from the status in PepcDB or PDB records

| Sequence | soluble on expression in E. coli |
| --- | --- |
| MGSDKIHHHHHHMIRFRNFWLPIWNRKMSMKNLYENDLLYRTTGPALRPGGFELTDWAVEHCRFQAGDRILDVGCGRGATVNRLRSHYHLEAYGIDPSATLLTLGQETYPDLPLSKGRGEDIPFTNSCFDGVFVECSLSLMTDPDQALSEIRRVLKVKGKLIIHDVYARNPQGTPDLRELNIGTCIRNALVKEDLEHGLESKGLRTIHWQDHSPLLNRLMMELIMTHGSMSAFWLKSTDCSADPNRVQAALKKAKVGYFQLIAEKEAEKEAEHCPVR | not soluble |
| MLREFSFYDVPPAHVPPVSEPLEIACYSLSRDRELLLDDSKLSYYYPPPLFSDLNTGFPNRFHPPKSDPDPISIVKDVLMTKGIQMNSSFLTWRGLITKIMCAPLDPRNHWETYLVMDPTSGIIMMEERTRSETSYANQDRMCYWGYKFEAISTLPEIWDACSRDQIEQRDNQDVVPDEQYCSIVKINIGKSKLILAGEVDCIWDKKPCSAKESDVHSDDGTIEEDASNAENPNLHYVELKTSKKYPLENYGMRKKLLKYWAQSFLLGIGRIIIGFRDDNGILIEMKELFTHQIPKMLRPYFKPNDWTPNRLLVVLEHALEWIKQTVKQHPPSTEFTLSYTGGSKLVLRQIILEHHHHHH | soluble |
| MGSDKIHHHHHHMGLLTKGSPLTWAETVPHIDYIKKHGIAQFINLYHRLKSRHGDQLKWGDEIEYTIVKFDDANKKVRVSCKAEELLNKLQAEEQVNAMLGTANRFLWRPEFGSYMIEGTPGMPYGGLIACFNIVEANMKLRRQDETCLSISFPSLGVPGFTFPEVAADRKNDDAANSVFWPEQAVFLGHPRFKNLTKNIKGRRGSKVAINVPIFKDTNTPSPFVEDLSALGGPDDTRDAKPDHIYMDHMGFGMGCCCLQVTFQAVNVDEARWLYDQLTPITPILLALSAATPIFRGKLSNVDSRWDIISASVDDRTPEERGLEPLKNSKWVIDKSRYDSTDCYIYPCSVGYNDIPLQYDETIYKQLIDGNIDEPLAKHIAHMFIRDPHQVFRERIEQDDEKSSEHFETIQSSNWMNMRFKPPPPDAPEIGWRVEFRPTEVQLTDFENAAYCCFVVLLTRMMISFRLTYLMPISMVTENMKRAQQKDAVLNQKFLFRKGLAECKSAPENLKGSEKCGPPSQDIEEMSIDEIINGKKNGFPGLISLIRQFLDSADVDVDTRCTISQYLNFISKRATGEINTLAHWTRGFVQSHPAYKHDSDVNDNIVYDLLKKMDAISNGEDHCEKLLGCYRSKTDHAISAAVRKAEEHMIVSSQKRAH | not soluble |
| MGSDKIHHHHHHMTENKNEKLGWINGHWGVFKDLKVPINDRGLNFADGIFETILILNGIPQLLDEHLNRWEKSASILEMNSPPSKEWLISLVEDGINQAQLKNINGVIRINWTRGESEQRGIDISKTSLHSFWLEIDSYQPNFESISTIISQTERRNSFSRLSSCKTFSYNQGIQARIEAKNLGFNDALLLNSQGEICCATTANILVKRENNWLTPPSNSGCLPGIMRQRGIELNIIKEALIEATPKDNDEWFLINSLSCRPIQKINKKELKISTNPKEFWLSLLKI | not soluble |
| MKNIIIIGANGFTGRQILNDLSSKAQYKVTGCSLHPDILPKNGGNYHFITTDIRDEAVVKQLFKDVQPDVVINCSALSVPDYCETHHEEAWLTNVTAVEQLAHLCESYKSRFIHLSTDFVFDGKIDEKSGQLYTEKSLPAPVNYYGFTKWKGEEKVTEICSNYAIARVEIVYGKALPGQHGNIVQLVMNRLNAGQEIRVVSDQWRTPTYVGDVSAGVQHLVENAANGIFHICGEECLTIAEIAFQVADYMKLDRSLVHPATTEEMQEATPRPRFSGMSIAKARTILGYQPRKLKDILMEWKH | not soluble |
| MATEIDINRIQKDIFIEHKGEPYRVLDYEHVKPGKGQAFVRVKAKNMLTGNVTELTFKASDRIPLADFEQVYATYSYNDGENYYFMNTQTYDMIAVPKEKIEEEAKFLKEGMEVIVFLYKGQPIGIELPKHVELQVVETEPAFKGDTQAGGTKPAKLETGAVIQVPFFVKEGDIVKVDTRTGSYVERVKEAK | soluble |
| MGSDKIHHHHHHMDRLQLLEYWLKALYPDQPCTLSPASADASFRRYFRASLPGKTLIVMDAPPQQEDCRPFLHAASIFSRASVHVPAIVAQDLNQGFLLLSDLGTTTYLQALTAAPENANRLYQDAIDALIKIQCASQKNIFPEYDRILLSRELELFPDWYMTRHLHAPPDDDQKNTLKTVFNLILANNLAQPQVFVHRDYHSRNLMVSTPNPGIIDFQDAVLGPITYDLVSLFKDAYIQWEEAQILDWMIRYWEKARHAGLPVATDFSIFYRDFEWMGVQRHLKVLGIFARLCYRDNKPTYLQDMPAIMQYLRQTCERYSELHPLSRLLDRLEDRQAETGYTF | not soluble |
| MSLTVSNNFKMIYIASCGEGINAFHLVESTLVQFPDSDITVVKVPHIRTESQVDHLLDRVKDVESLIAHTIVEPNLRQYLVTKAEEHKIVTIDLMGQVLNKIETFLSIRPLGKPGLYRETHQVDLKQVTAIDFALAHDDGLRPESLDEAEIILVGLSRAGKTPLSMYMGVMGWKVANIPYVPGVPMPQTLDEVDRRRVIALNINIEQLLSHRKMRQESLGTSDMHAYSRRQEVEVEVQTAQKYYITKGFSMIDVSNKPIETSAEEIAEMITRRFKAQAHEGHHHHHH | not soluble |
| MKWSEYANLAQQSLEKFYLADTKEQFLNNFYPTENPEEDNKVFNYWWLAHLVEVRLDAYLRTKKQADLEVAEKTYLHNKNRNGGTLIHDFYDDMLWNALAAYRLYKATGKSIYLEDAQLVWQDLVDTGWNDIMGGGFAWRRPQMYYKNTPVNAPFIILSCWLYNELNETKYLEWAMKTYEWQTKVLVREDGFVEDGINRLEDGTIDYEWKFTYNQGVYIGANLELYRITKEAKYLDTANKTAAISLKELTEDGIFKDEGNGGDEGLFKGIFYRYFTDLIEETANKTYRDFVLNSCQILVENAKLDGYLLMGMNWKEKPSGKIPYSAELSGMIALEMAAKLELEHHHHHH | soluble |
| MDAKVYVGGLPSDATSQELEEIFDRFGRIRKVWVARRPPGFAFVEYDDVRDAEDAVRALDGSRICGVRARVELSTGQRRGGGGRGGGFGGRGGGGRDRSPYRGDRGRSRSRSRDRGRDRSRDRSRDRSRDRSRDRSRERSRERERTRSRSRSPQERDRSHSKSRSRSRSRSRSRSASPH | soluble |
| MGSDKIHHHHHHMKKLLNTLYVTSENSYLGLDGENVVVYDDKNEIGRLPLHNLEAIISFGYRGTSPALMGACADRNISLCYLTPQGKFLARVSGKVKGNVVLRKQQFQSSSEDIKCLEIAKNCILGKVYNSRWVLERAIRDHSMQIDVDKVKKASIKLKEFLDYIQNSQSMNQLRGYEGEAASIYFGVFDELILQQKKDFFFQGRNRRPPLDNVNAMLSFTYTLLTTQITSALEVVGLDPYVGYMHTERPGRVSLSLDLIEELRAVMADRFVLSLINKKIVNGKSFTKKENGAVLMDTDIRKKLLSEWQNKKKEIITHPYLNEKVEWGMVPFVQAMLLARYLRGDLDEYPVFLWK | not soluble |
| EVKLVESGGGLVKPGGSLKLSCAASGFTFSRYALSWVRQTADKRLEWVASIVSGGNTYYSGSVKGRFTISRDIARNILYLQMSSLRSEDTAMYYCARAYYGYVGLVHWGQGTLVTVSSAKTTPPSVYPLAPGSAAQTNSMVTLGCLVKGYFPEPVTVTWNSGSLSSGVHTFPAVLQSDLYTLSSSVTVPSSTWPSETVTCNVAHPASSTKVDKKIVPRDCG | soluble |
| MSLATSRTVLPDDLLINASDEVLTRQDLVLTALGRRPADRLLRVGRLLDVHSRTWLDDQEIVIKGRRIAYVGPAGSYAGEVNERFSEPDLAAVPGFGEAHKHIESSHLTPEWEAALVMPHGVTWTCEASHEFSNVNGARNLEFWLEARRRGSPMKIFPLPGSAVPPTAYEWGGGWFGYDEQKAFLSESLMVAGLDEVMDWPSISDPGNPSYDRLWGMIGATFEQRGVVEGHGAGLRDMASINAFAAAGLASDHEGWFLDEIWQKLLHGLFIELRPHSLPEVIRGLIDKGLTDWSQIALVTDDRSASDTLKIGATDHNVRLAIENGLAPETAIQCVTLNPARHMRLTPWVGSIAPGRFADIVLLSDVASLSIEKVWADGRPASEGATFIGVRPEIDWPQWATRTVKIDRTVTADDFRIEAPPNRTTVNAALLRPFHWHDDFITMELPVEEGAVQRDAARNVTKFSIVDRFSGEARVSRMFWLGTGPRTPETALASTLGHDKHNIWTVGSSDEAMAISVNALNEQQGGWVLVSGGKILARVRYEVGGLMTARSAEALDAEMQALYAAGAGIDWMYEPTFSPRWWPGFPERLSFATLTCSPWRWVLVAPSELAPDGFVNVLTGKTHPIVWEGHHHHHH | soluble |
| MGHHHHHHSHMHAPLSLLKQMLKEHQIDTEKAVTFEEYIAMRLKLQELMGKFASIGEWDLYQKAADLMMHIGIQWMK | not soluble |
| MSKKLLIKTWGCQMNEYDSSKMADLLNAANGYELTEEPEEADVLLLNTCSIREKAQEKVFHQLGRWKTLKDKKPGVVIGVGGCVATQEGDHIRERAPYVDVIFGPQTLHRLPEMIKQSQTDDAPVMDISFPEIEKFDRLPEPRAEGATAFVSILEHHHHHH | not soluble |
| MSLDEAWKSLEKLRGVKLLPGNKVLLKRGEVFNGELEITGQGIPEDRIYIDAYGDDERKPCIVGYDTSLYAARICNSDYITMQNLEIVNTGRQPLPYRSGLKIECMDYGVSQNIVVNNVTVRDVNGSLVKEKGGGCGIYIVNGGEKKISTFNRLTIENCHILRCTRNAMIWAAYSDRQNWHPSKHTVIRGNLIEEVPGDGIVPIGCDSTLIEYNVMRDCPDMLPDTEAAAGIWPWSCDNTLVQFNEVSGHKAPWDAQGFDSDWNCRGTVIQYNYSHDNYGGLVLVCNDGTADASFNVGNLGTIVRYNVSIGDGVRPEPTRAGMFSPAVHLAGPVKDSRITRNIIHVNRKPAADIDRTMITLDSWGGYPDSTFISGNIFYAPESSRFQLTESTHNFFEGNYYLGRFEKLPEDGKACQSAEIYQKEVLAKDENGYQGLALLMDTVEVTGVKGVFVNKEAIENFFSRLEKEGHHHHHH | not soluble |
| MVKPKYSRVLIKLSGEALAGEKGVGIDIPTVQTIAQEIKEVHDSGIEIALVIGGGNLWRGEPASKAGMDRVQADYTGMLGTVMNALVMADALQHAGVDTRVQTAIAMQQVAEPYIRGRALRHLQKGRIVIFAAGVGSPYFSTDTTSALRAAEIEADAILMAKNGVDGVYNDDPRKNADAIKFNELTHMEVLKRGLKIMDSTASSLSMDNDIDLVVFNLNESGNIKRVIFGEQIGTTVTSRISDSEMAGDPLEHHHHHH | soluble |
| MNADEWMTTFRENIAQTWQQPEHYDLYIPAITWHARFAYDKEKTDRYNERPWGGGFGLSRWDEKGNWHGLYAMAFKDSWNKWEPIAGYGWESTWRPLADENFHLGLGFTAGVTARDNWNYIPLPVLLPLASVGYGPVTFQMTYIPGTYNNGNVYFAWMRFQFL | soluble |
| MADNLPSDFDVIVIGTGLPESIIAAACSRSGQRVLHVDSRSYYGGNWASFSFSGLLSWLKEYQENNDVVTENSMWQEQILENEEAIPLSSKDKTIQHVEVFCYASQDLHKDVEEAGALQKNHASVTSAQSAEAAEAAETSCLPTAVEPLSMGSCEIPAEQSQCPGPESSPEVNDAEATGKKENSDAKSSTEEPSENVPKVQDNTETPKKNRITYSQIIKEGRRFNIDLVSKLLYSRGLLIDLLIKSNVSRYAEFKNITRILAFREGTVEQVPCSRADVFNSKQLTMVEKRMLMKFLTFCVEYEEHPDEYRAYEGTTFSEYLKTQKLTPNLQYFVLHSIAMTSETTSCTVDGLKATKKFLQCLGRYGNTPFLFPLYGQGELPQCFCRMCAVFGGIYCLRHSVQCLVVDKESRKCKAVIDQFGQRIISKHFIIEDSYLSENTCSRVQYRQISRAVLITDGSVLKTDADQQVSILTVPAEEPGSFAVRVIELCSSTMTCMKGTYLVHLTCMSSKTAREDLERVVQKLFTPYTEIEAENEQVEKPRLLWALYFNMRDSSDISRDCYNDLPSNVYVCSGPDSGLGNDNAVKQAETLFQQICPNEDFCPAPPNPEDIVLDGDSSQQEVPESSVTPETNSETPKESTVLGNPEEPSE | soluble |
